According to patent US20220387578A1:

Key:
[1] = target: H1 HA A/Texas/36/1991 (H1N1), recombinant soluble trimer (influenza A virus)
[2] = target: H3 HA A/Texas/50/2012, recombinant soluble trimer (influenza A virus)
[3] = target: H1 HA A/Solomon Islands/03/2006 (H1N1), recombinant soluble trimer (influenza A virus)

Substance | EC50 [1] | EC50 [2] | EC50 [3] | EC50 relative to wild type rFluA-20 [3]
rFluA-20 heavy chain mutant C101A (antibody) | 0.15 µg/mL | 0.39 µg/mL | 0.2 µg/mL | –
rFluA-20 light chain mutant N53A (antibody) | 0.04 µg/mL | 0.09 µg/mL | 0.05 µg/mL | –
rFluA-20 light chain mutant Q55A (antibody) | 0.23 µg/mL | – | – | > 100 fold
